From the supplement of paper PMC11780869

Tested on: Bacillus subtilis
Assay: cleaved RNA product abundance (RNA/gDNA barcode ratio) relative to median wild-type variant (ratio to wild type); higher = more accumulation of the downstream cleavage product
Settings: cleavage site: cggR-gapA (positions -7 to +36 mutated)
Procedure, shortened: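 Truncated aprE or tetM reporter mRNAs with barcoded RNase Y cleavage-site windows, mutagenized from oligos at a 9% error rate, sat in the B. subtilis chromosome. Cells grew in LB at 37°C from OD600 0.0003 to 0.3. Gel-selected cleaved RNA was reverse transcribed and its barcodes sequenced with those from genomic DNA, collapsing by UMI. Cleaved product abundance equals the RNA:gDNA barcode ratio per construct over the median construct with the unmutated site.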

[1] = experiment (reporter, strain, medium): exp 2b: truncated aprE reporter, strain BJT200
[2] = experiment (reporter, strain, medium): exp 4a: truncated aprE reporter, strain BJT201 with 2% xylose (RNase J1 expressed)
[3] = experiment (reporter, strain, medium): exp 6: tetM reporter, strain 168

Sequence | cleaved RNA product abundance [1] | cleaved RNA product abundance [2] | cleaved RNA product abundance [3]
ACAGACGAAGGAGCCGCAAAGAAGTTTTTAAGGGATGAATAATCCATCAATATAAATATCTCTCACTTATTTAAA | 0.178 | 0.189 | –
ACAGACGAAGGAGCCGCAAAGAAGTTTTTAAGGGATGAATAATCCCACAATATAAATATCTCTCACTTATTTAAA | – | 0.251 | –
ACAGACGAAGGAGCCGCAAAGAAGTTTTTAAGGGATGAATAATCCCGCAATATAAATATCTCTCACTTATTTAAA | – | 0.137 | –
ACAGACGAAGGAGCCGCAAAGAAGTTTTTAAGGGATGAATAATCCCTAAATATAAATATCTCTCACTTATTTAAA | 0.364 | – | –
ACAGACGAAGGAGCCGCAAAGAAGTTTTTAAGGGATGAATAATCCCTCAACATAAATATCTCTCACTTATTTAAA | – | 0.295 | –
ACAGACGAAGGAGCCGCAAAGAAGTTTTTAAGGGATGAATAATCCCTCAATAAAAATATCTCTCACTTATTTAAA | – | 0.0781 | –
ACAGACGAAGGAGCCGCAAAGAAGTTTTTAAGGGATGAATAATCCCTCAATATAAACATCTCTCACTTATTTAAA | – | 0.208 | –
ACAGACGAAGGAGCCGCAAAGAAGTTTTTAAGGGATGAATAATCCCTCAATATAAATATCTCTCACTTATTTAAA | 0.274 | 0.365 | 0.209
ACAGACGAAGGAGCCGCAAAGAAGTTTTTAAGGGATGAATAATCCCTCAATATACATATCTCTCACTTATTTAAA | – | 0.364 | –
ACAGACGAAGGAGCCGCAAAGAAGTTTTTAAGGGATGAATAATCCCTCAATTTAAATATCTCTCACTTATTTAAA | – | 0.188 | –
ACAGACGAAGGAGCCGCAAAGAAGTTTTTAAGGGATGAATAATCCCTCACTATAAATATCTCTCACTTATTTAAA | – | 0.267 | –
ACAGACGAAGGAGCCGCAAAGAAGTTTTTAAGGGATGAATAATCCCTCATTATAAATATCTCTCACTTATTTAAA | – | 0.405 | –
ACAGACGAAGGAGCCGCAAAGAAGTTTTTAAGGGATGAATAATCCCTTAATATAAATATCTCTCACTTATTTAAA | 0.844 | 0.798 | –
ACAGACGAAGGAGCCGCAAAGAAGTTTTTAAGGGATGAATAATCCGTCAATATAAATATCTCTCACTTATTTAAA | 0.133 | 0.321 | –
ACAGACGAAGGAGCCGCAAAGAAGTTTTTAAGGGATGAATAATGCCTCAATATAAATATCTCTCACTTATTTAAA | 0.121 | 0.17 | –
ACAGACGAAGGAGCCGCAAAGAAGTTTTTAAGGGATGAATAATTCCTCAATATAAATATCTCTCACTTATTTAAA | 0.177 | 0.195 | –
ACAGACGAAGGAGCCGCAAAGAAGTTTTTAAGGGATGAATATTCCCTCAATATAAATATCTCTCACTTATTTAAA | 0.214 | 0.341 | –
ACAGACGAAGGAGCCGCAAAGAAGTTTTTAAGGGATGACTAATCCCTCAATATAAATATCTCTCACTTATTTAAA | 0.201 | 0.212 | –
ACAGACGAAGGAGCCGCAAAGAAGTTTTTAAGGGATGAGTAATCCCTCAATATAAATATCTCTCACTTATTTAAA | – | 0.235 | –
ACAGACGAAGGAGCCGCAAAGAAGTTTTTAAGGGATGTATAATCCCTCAATATAAATATCTCTCACTTATTTAAA | 0.285 | 0.331 | –
ACAGACGAAGGAGCCGCAAAGAAGTTTTTAAGGGATTAATAATCCCTCAATATAAATATCTCTCACTTATTTAAA | 0.364 | 0.364 | –
ACAGACGAAGGAGCCGCAAAGAAGTTTTTAAGGGTTGAATAATCCCTCAATATAAATATCTCTCACTTATTTAAA | 0.166 | 0.271 | –

Sequence | cleaved RNA product abundance [1] | cleaved RNA product abundance [2] | cleaved RNA product abundance [3]
ACAGACGAAGGAGCCGCAAAGAAGTTTTTAAGGTATGAATAATCCCTCAATATAAATATCTCTCACTTATTTAAA | – | 0.098 | –
ACAGACGAAGGAGCCGCAAAGAAGTTTTTAAGTGATGAATAATCCCTCAATATAAATATCTCTCACTTATTTAAA | 0.117 | 0.0945 | –
ACAGACGAAGGAGCCGCAAAGAAGTTTTTAATGGATGAATAATCCCTCAATATAAATATCTCTCACTTATTTAAA | – | 0.175 | –
ACAGACGAAGGAGCCGCAAAGAAGTTTTTAGGGGATGAATAATCCCTCAATATAAATATCTCTCACTTATTTAAA | – | 0.507 | –
ACAGACGAAGGAGCCGCAAAGAAGTTTTTATGGGATGAATAATCCCTCAATATAAATATCTCTCACTTATTTAAA | – | 0.323 | –
ACAGACGAAGGAGCCGCAAAGAATATATTAAGGGATGAATAATCCCTCAATATAAATATCTCTCACTTATTTAAA | – | 0.375 | –
ACAGACGAAGGAGCCGCAAAGAATCTATTAAGGGATGAATAATCCCTCAATATAAATATCTCTCACTTATTTAAA | – | 0.689 | –
ACAGACGAAGGAGCCGCAAAGAATGTATTAAGGGATGAATAATCCCTCAATATAAATATCTCTCACTTATTTAAA | – | 0.695 | –
ACAGACGAAGGAGCCGCAAAGAATTAATTAAGGGATGAATAATCCCTCAATATAAATATCTCTCACTTATTTAAA | 0.257 | 0.36 | –
ACAGACGAAGGAGCCGCAAAGAATTCATTAAGGGATGAATAATCCCTCAATATAAATATCTCTCACTTATTTAAA | 0.196 | 0.23 | –
ACAGACGAAGGAGCCGCAAAGAATTGATTAAGGGATGAATAATCCCTCAATATAAATATCTCTCACTTATTTAAA | – | 0.439 | –
ACAGACGAAGGAGCCGCAAAGAATTTAATAAGGGATGAATAATCCCTCAATATAAATATCTCTCACTTATTTAAA | 0.25 | 0.309 | –
ACAGACGAAGGAGCCGCAAAGAATTTACTAAGGGATGAATAATCCCTCAATATAAATATCTCTCACTTATTTAAA | 0.251 | 0.31 | –
ACAGACGAAGGAGCCGCAAAGAATTTAGTAAGGGATGAATAATCCCTCAATATAAATATCTCTCACTTATTTAAA | – | 0.337 | –
ACAGACGAAGGAGCCGCAAAGAATTTATAAAGGGATGAATAATCCCTCAATATAAATATCTCTCACTTATTTAAA | 0.355 | 0.481 | 0.219
ACAGACGAAGGAGCCGCAAAGAATTTATCAAGGGATGAATAATCCCTCAATATAAATATCTCTCACTTATTTAAA | 0.275 | 0.377 | –
ACAGACGAAGGAGCCGCAAAGAATTTATGAAGGGATGAATAATCCCTCAATATAAATATCTCTCACTTATTTAAA | – | 0.325 | –
ACAGACGAAGGAGCCGCAAAGAATTTATTAAAGGATGAAAAATCCCTCAATATAAATATCTCTCACTTATTTAAA | – | 0.197 | –
ACAGACGAAGGAGCCGCAAAGAATTTATTAAAGGATGAATAATCCCTCAATATAAATATCTCTCACTTATTTAAA | 0.171 | 0.213 | –
ACAGACGAAGGAGCCGCAAAGAATTTATTAACGGATGAATAATCCCTCAATATAAATATCTCTCACTTATTTAAA | – | 0.203 | –
ACAGACGAAGGAGCCGCAAAGAATTTATTAAGAGATGAATAATCCCTCAATATAAATATCTCTCACTTATTTAAA | 0.112 | 0.142 | –
ACAGACGAAGGAGCCGCAAAGAATTTATTAAGCGATGAATAATCCCTCAATATAAATATCTCTCACTTATTTAAA | 0.116 | 0.122 | –
